The values below come from patent US20160176924A1 (UNIVERSITY OF COPENHAGEN, published 2016).

Like-named read-outs stand apart in the source and are kept apart here. Square brackets hold non-standard residues; d marks the D form. Primed or numbered codes have the meaning given here. Ends that are not written are not given here. * marks the point of attachment. cyclohexylethyl″ = cyclohexylethyl group on the nitrogen (N-alkyl substituent), C1CCC(CC*)CC1; PEG4‑diacid = 4,7,10,13,16-pentaoxanonadecane-1,19-dioic acid; (naphthalen-2-yl)ethyl = c1ccc2cc(CC*)ccc2c1; Cyclohexylmethyl = C1CCC(C*)CC1; NMeE = CN[C@@H](CCC(=O)O)C(=O)O; cyclohexylethyl = C1CCC(CC*)CC1; NMeA = CN[C@@H](C)C(=O)O; Bn = c1ccc(C*)cc1

Assay [1] addresses T1, HIS-PDZ1-2 protein (PSD-95 PDZ1-2 tandem, residues 61-249, with tag …) (human, UniProt P78352 61-249). In words: FP competition, fluorescent NR2B probe.
Assay [2] deals with T2, HIS-PDZ3 protein (PSD-95 PDZ3, residues 309-401, with tag …) (human, UniProt P78352 309-401). In words: FP competition, fluorescent CRIPT probe.
Assay [3] concerns the target T2, HIS-PDZ3 protein (PSD-95 PDZ3, residues …). As to the kind of experiment: FP competition, fluorescent CRIPT probe. This is another data set of the same source.
In assay [4] the target is T3, HIS-PDZ1 protein (PSD-95 PDZ1, residues 61-151, with tag …) (human, UniProt P78352 61-151).
T3 construct: expressed in E. coli
In words: FP competition, fluorescent NR2B probe.

In assay [5] the target is T4, HIS-PDZ2 protein (PSD-95 PDZ2, residues 155-249, with tag …) (human, UniProt P78352 155-249). In words: FP competition, fluorescent NR2B probe.
Assay [6] concerns the target T4, HIS-PDZ2 protein (PSD-95 PDZ2, residues …). As to the kind of experiment: FP competition, fluorescent NR2B probe. The source holds these as a separate data set.
The target of assay [7] is T3, HIS-PDZ1 protein (PSD-95 PDZ1, residues …). In words: FP competition, fluorescent NR2B probe. This is another data set of the same source.
In assay [8] the target is T4, HIS-PDZ2 protein (PSD-95 PDZ2, residues …). As to the kind of experiment: FP competition, fluorescent NR2B probe. This is another data set of the same source.
Assay [9] addresses T3, HIS-PDZ1 protein (PSD-95 PDZ1, residues …). As to the kind of experiment: FP competition, fluorescent NR2B probe. The source holds these as a separate data set.
In assay [10] the target is T1, HIS-PDZ1-2 protein (PSD-95 PDZ1-2 …). As to the kind of experiment: ITC. For orientation: Isothermal titration calorimetry measures the heat released or taken up as one component is titrated into another.

B1: Compound 84 (ESDV dimerized with PEG12) (peptide)
peptide: ESDV
modifications: also: dimer: two peptides joined at N-terminal amines by amide bonds through a PEG12-diacid linker
notes: Dimeric ligand
In the case of B1, the Ki in assay [1] was 0.92 µM.

Turning to ETAV [ETAV (51)], the Ki in assay [2] and in [3] was 260 µM in each case.

Take QTDV [QTDV (65)]: the values for the Ki in assay [4] and in [5] were 58 µM and 60 µM, respectively. For the same molecule, the binding result in assay [3] is on record as “no binding”.

With ATDV [ATDV (66)], the inhibitory constant (Ki) in assay [4] amounted to 30 µM; in [5], 38 µM. Moreover, the binding result in assay [3] was “no binding”.

B2: Compound 85 (ESDV dimerized with PEG8) (peptide)
peptide: ESDV
modifications: also: dimer: two peptides joined at N-terminal amines by amide bonds through a PEG8-diacid linker
notes: Dimeric ligand
Turning to B2, the Ki turned out to be 1 µM in assay [1] and 19 µM in [6].

For the molecule {PEG4‑diacid}-IAT[NMeA]V-OH (also: dimer: two peptides N-terminally joined via PEG4-diacid, Dimeric ligand) [(IATAMeV)2PEG4 (90)], the results for the Ki in assay [1] and in [6] were 13 µM and 103 µM, respectively.

B3: (IATAV)2PEG12 (87) (peptide)
peptide: IATAV
modifications: also: dimer: two peptides joined at N-terminal amines by amide bonds through a PEG12-diacid linker
notes: Dimeric ligand
As for B3, the Ki was determined as 1 µM in [1] and 13 µM in [6].

B4: (IATAV)2PEG4 (88) (peptide)
peptide: IATAV
modifications: also: dimer: two peptides joined at N-terminal amines by amide bonds through a PEG4-diacid linker
notes: Dimeric ligand
B4 showed a Ki in assay [1] of 1.1 µM.

For the molecule IAT[NMeA]V [IATAMeV (89)], the Ki in assay [1] was 142 µM; in assay [6], 104 µM.

Turning to ATAV [ATAV (68)], the Ki came out at 64 µM in [4], 73 µM in [5] and 400 µM in assay [3].

Regarding {(naphthalen-2-yl)ethyl}-ETAV [N-(Naphtalene-2-yl)ethyl-ETAV (63)], the Ki is 10 µM in [2], 1 µM in assay [7] and 0.95 µM in [8].

B5: ATDV (71), N-cyclohexylethyl (peptide)
peptide: {cyclohexylethyl″}-ATDV-OH
SMILES: CC(C)[C@H](NC(=O)[C@H](CC(=O)O)NC(=O)[C@@H](NC(=O)[C@H](C)NCCC1CCCCC1)[C@@H](C)O)C(=O)O
For B5, the inhibitory constant (Ki) turned out to be 5.8 µM in [4] and 3.6 µM in assay [5].

On to QTAV [QTAV (67)], for which the Ki in assay [4] is 112 µM; in assay [5] it was 108 µM.

Take Cyclohexylmethyl-ETAV [N-Cyclohexylmethyl-ETAV (55)]: the Ki turned out to be 21 µM in [2], 1 µM in [7] and 1.3 µM in assay [8].

For butyl-ETAV [N-Butyl-ETAV (54)], the figures for the inhibition constant Ki in assay [7] and in assay [8] were 8.4 µM and 4 µM, respectively.

On to [NMeE]TDV [EMeTDV (36)], for which, in assay [9], the “fold more potent than WT peptide 1” value was around 3 fold.

In assay [8], Phenylethyl-ETAV [N-Phenylethyl-ETAV (59)] returned an inhibition constant (Ki) of 1.6 µM.

For the molecule cyclohexylethyl-ETAV [N-Cyclohexylethyl-ETAV (56)], the Ki in assay [4] was found to be 0.94 µM; in assay [5], 0.45 µM; in [2] it was 11 µM; in [3], 11 µM; in [7] it was 0.94 µM; in assay [8], 0.45 µM.

B6: N-(3,4-Dichlorophenyl)propyl-ETAV (61) (peptide)
peptide: ETAV
modifications: not fully specified
notes: The printed formula C25H37Cl2N4O8 and the comparison with 59 point to an ethyl spacer, the printed name says propyl
On to B6, for which the Ki in assay [2] was 6.7 µM; in [7], 2.4 µM; in assay [8], 1.1 µM.

Turning to cyclohexylethyl-QTAV [QTAV (72), N-cyclohexylethyl], the Ki in assay [4] was found to be 21 µM; in assay [5], 12 µM; in [3] it was 141 µM.

For the molecule Bn-ETAV [N-Benzyl-ETAV (58)], the inhibition constant Ki in assay [2] came out at 63 µM; in assay [7] it was 7.2 µM; in assay [8], 5.2 µM.

B7: ETDV (69), N-cyclohexylethyl (peptide)
peptide: {cyclohexylethyl″}-ETDV-OH
SMILES: CC(C)[C@H](NC(=O)[C@H](CC(=O)O)NC(=O)[C@@H](NC(=O)[C@H](CCC(=O)O)NCCC1CCCCC1)[C@@H](C)O)C(=O)O
In the case of B7, the results for the Ki in assay [4] and in assay [5] were 1.8 µM and 0.75 µM, respectively. Also, the binding result in assay [3] is “no binding”.

Consider Et-ETAV [N-Ethyl-ETAV (52)], for which the Ki in [2] was 69 µM; in [7] it was 9.3 µM; in assay [8], 9.6 µM.

With {cyclohexylethyl″}-QTDV-OH [QTDV (70), N-cyclohexylethyl], the binding result in assay [3] is given as “no binding”.

B8: ETDV (64) (peptide)
peptide: ETDV
notes: also called 28 (ESDV with Ser P^-2 replaced by Thr)
With B8, in [3], the binding result was “no binding”.

B9: N-(3,4-Difluorophenyl)propyl-ETAV (62) (peptide)
peptide: ETAV
modifications: not fully specified
notes: The printed formula C25H37F2N4O8 points to an ethyl spacer, the printed name says propyl
In the case of B9, the Ki in assay [2] is 7.8 µM; in [7] it was 0.98 µM; in assay [8], 1 µM.

With phenylpropyl-ETAV [N-Phenylpropyl-ETAV (60)], the Ki in assay [8] was 3.1 µM. In other words, the single-digit micromolar range.

Consider cyclohexylethyl-ATAV [ATAV (73), N-cyclohexylethyl], for which the values for the Ki in [4], in assay [5] and in [3] were 8.9 µM, 8.1 µM and 89 µM, respectively.

Turning to [NMeE]TQV [EMeTQV (39)], the “fold more potent than WT peptide 1” value in assay [9] is around 3 fold.

For {PEG2‑diacid}-IESDV (also: dimer: two peptides N-terminally joined via PEG2-diacid, Dimeric ligand) [Compound 79 (IESDV dimerized with PEG2-diacid)], in assay [10], the Kd came to 0.22 µM. In addition, the figures for the Ki in assay [1] and in assay [6] were 0.27 µM and 4.7 µM, respectively.

In [10], {PEG1‑diacid}-IESDV (also: dimer: two peptides N-terminally joined via PEG1-diacid, Dimeric ligand) [Compound 80 (IESDV dimerized with PEG1-diacid)] yielded a Kd of 0.46 µM. Also, the figures for the Ki in [1] and in [6] were 0.56 µM and 4.7 µM, respectively.

One may read the Ki as the equilibrium dissociation constant of an inhibitor or competing ligand from its target. Higher therefore signals weaker binding. Broadly, the Kd is the concentration at which binding is half-saturated. High values mean a looser complex, low ones a tighter complex.
